In patent US20060166324, “Screening tools for discovery of novel anabolic agents” (USA as represented by the Dept. of Veterans Affairs, published 2006):

What was measured:
[1] = system: Glucocorticoid receptor (Rattus norvegicus); experiment: cell_activity; conditions: HepG2 luciferase reporter, dexamethasone
[2] = system: Androgen receptor (full length) (Homo sapiens); experiment: cell_activity; conditions: HepG2 luciferase reporter, testosterone
[3] = biological target: T1, Androgen receptor DNA-binding domain (Homo sapiens, UniProt P10275 P10275:560-632); experiment: EMSA; band weaker than SRE; diminished by excess cold SRE; conditions: tags: GST fusion (pGEX 4T-1 hAR2, E. coli BL21); label: 32P
T1 sequence (P10275 560-632, one chain of several): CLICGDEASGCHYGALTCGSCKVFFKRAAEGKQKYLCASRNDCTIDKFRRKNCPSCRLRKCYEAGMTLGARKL
From the text: (§1) In order to more directly test whether the AR bound to sequences with ARE1 and ARE2, binding of a GST-tagged version of recombinant AR DNA-binding domain to radiolabeled probes was examined using electrophoretic mobility shift assays.

[4] = biological target: T1, Androgen receptor DNA-binding domain; experiment: EMSA; strong band, greatly diminished by excess unlabeled probe; conditions: tags: GST fusion (pGEX 4T-1 hAR2, E. coli BL21); label: 32P
From the text: as §1

[5] = biological target: T1, Androgen receptor DNA-binding domain; experiment: EMSA; band consistently weaker than SRE; greatly diminished by excess cold SRE; conditions: tags: GST fusion (pGEX 4T-1 hAR2, E. coli BL21); label: 32P
From the text: as §1

“pGL3-13a IGF-1 promoter insert -1370 to -1250 (ARE2)” showed an activity (fold induction) [1] of 5 and an activity (fold induction) [2] greater than 20.

For “pGL3-32 IGF-1 promoter insert -1429 to -1250 (ARE1 and ARE2)”, the activity (fold induction) [1] was 5 and the activity (fold induction) ([2]; 25-fold plateau in FIG. 15) was 30.

“pGL3-22 IGF-1 promoter insert -1508 to -1402 (ARE1)” gave an activity (fold induction) [1] of less than 2 and an activity (fold induction) [2] greater than 5.

B1: IGF-1 ARE1 probe (dsDNA)
DNA 1: GACTTGACCATATCTTATTCCTCTTTG
DNA 2: CAAAGAGGAATAAGATATGGTCAAGTC
B1: binds [3].

B2: consensus SRE probe (dsDNA)
DNA 1: ATGCATTGGGTACATCTTGTTCACATA
DNA 2: TATGTGAACAAGATGTACCCAATGCAT
B2: binds [4].

B3: IGF-1 ARE2 probe (dsDNA)
DNA 1: TTGTAGTTGGGCACATAGTAGAGCTCA
DNA 2: TGAGCTCTACTATGTGCCCAACTACAA
B3: binds [5].
